For assay [1], the target named is T1, ALK-ECD-myc/his tag protein (human, UniProt Q9UM73 19-1038).
T1 construct: Expressed in 293/293F cells and purified from conditioned medium; biotin labelled for the soluble panning; also called recombinant ALK-ECD-myc/his tag; ALK-ECD protein; not shown: Myc/His tag
The experiment in a line: ELISA, ALK-ECD-myc/his coated at 10 μg/mL, anti-human IgG-HRP. In general terms: ELISA stands for enzyme-linked immunosorbent assay.

Assay [2] addresses T2, ALK expressed on the cell surface (human, UniProt Q9UM73 19-1620).
T2 construct: also called ALK protein expressed on the cell surface; ALK-expressing cells
The experiment in a line: FACS on ALK positive cells, 1 to 20 μg/mL IgG, FITC anti-human IgG.

T1 sequence (Q9UM73 other isoform, or with tags, fused parts or gaps): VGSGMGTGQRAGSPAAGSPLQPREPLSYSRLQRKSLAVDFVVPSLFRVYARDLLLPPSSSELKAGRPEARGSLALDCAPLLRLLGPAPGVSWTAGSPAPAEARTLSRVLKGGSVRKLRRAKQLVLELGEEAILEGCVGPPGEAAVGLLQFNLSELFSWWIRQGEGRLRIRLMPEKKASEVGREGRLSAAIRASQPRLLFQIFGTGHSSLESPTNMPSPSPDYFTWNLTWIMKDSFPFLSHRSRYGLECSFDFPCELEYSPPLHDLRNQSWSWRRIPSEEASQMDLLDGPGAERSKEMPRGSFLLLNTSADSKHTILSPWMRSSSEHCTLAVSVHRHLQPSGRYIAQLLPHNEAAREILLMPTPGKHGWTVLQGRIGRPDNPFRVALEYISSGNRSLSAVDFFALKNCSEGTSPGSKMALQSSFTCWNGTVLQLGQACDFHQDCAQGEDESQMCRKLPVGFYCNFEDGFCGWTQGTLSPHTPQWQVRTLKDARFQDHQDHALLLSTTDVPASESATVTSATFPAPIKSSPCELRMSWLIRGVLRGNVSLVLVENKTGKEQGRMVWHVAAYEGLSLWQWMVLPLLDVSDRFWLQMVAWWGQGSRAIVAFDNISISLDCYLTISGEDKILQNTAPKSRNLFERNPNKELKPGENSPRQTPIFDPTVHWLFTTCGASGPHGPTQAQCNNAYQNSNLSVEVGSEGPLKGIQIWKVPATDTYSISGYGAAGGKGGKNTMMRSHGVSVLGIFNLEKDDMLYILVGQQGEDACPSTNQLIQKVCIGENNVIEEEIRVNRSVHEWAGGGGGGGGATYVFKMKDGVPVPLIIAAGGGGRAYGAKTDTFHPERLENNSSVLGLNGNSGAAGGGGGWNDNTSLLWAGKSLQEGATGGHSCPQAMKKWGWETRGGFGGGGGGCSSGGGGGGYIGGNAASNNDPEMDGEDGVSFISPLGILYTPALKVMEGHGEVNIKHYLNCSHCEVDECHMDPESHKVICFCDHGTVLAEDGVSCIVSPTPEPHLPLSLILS
T2 sequence (Q9UM73 other isoform, or with tags, fused parts or gaps limits assumed): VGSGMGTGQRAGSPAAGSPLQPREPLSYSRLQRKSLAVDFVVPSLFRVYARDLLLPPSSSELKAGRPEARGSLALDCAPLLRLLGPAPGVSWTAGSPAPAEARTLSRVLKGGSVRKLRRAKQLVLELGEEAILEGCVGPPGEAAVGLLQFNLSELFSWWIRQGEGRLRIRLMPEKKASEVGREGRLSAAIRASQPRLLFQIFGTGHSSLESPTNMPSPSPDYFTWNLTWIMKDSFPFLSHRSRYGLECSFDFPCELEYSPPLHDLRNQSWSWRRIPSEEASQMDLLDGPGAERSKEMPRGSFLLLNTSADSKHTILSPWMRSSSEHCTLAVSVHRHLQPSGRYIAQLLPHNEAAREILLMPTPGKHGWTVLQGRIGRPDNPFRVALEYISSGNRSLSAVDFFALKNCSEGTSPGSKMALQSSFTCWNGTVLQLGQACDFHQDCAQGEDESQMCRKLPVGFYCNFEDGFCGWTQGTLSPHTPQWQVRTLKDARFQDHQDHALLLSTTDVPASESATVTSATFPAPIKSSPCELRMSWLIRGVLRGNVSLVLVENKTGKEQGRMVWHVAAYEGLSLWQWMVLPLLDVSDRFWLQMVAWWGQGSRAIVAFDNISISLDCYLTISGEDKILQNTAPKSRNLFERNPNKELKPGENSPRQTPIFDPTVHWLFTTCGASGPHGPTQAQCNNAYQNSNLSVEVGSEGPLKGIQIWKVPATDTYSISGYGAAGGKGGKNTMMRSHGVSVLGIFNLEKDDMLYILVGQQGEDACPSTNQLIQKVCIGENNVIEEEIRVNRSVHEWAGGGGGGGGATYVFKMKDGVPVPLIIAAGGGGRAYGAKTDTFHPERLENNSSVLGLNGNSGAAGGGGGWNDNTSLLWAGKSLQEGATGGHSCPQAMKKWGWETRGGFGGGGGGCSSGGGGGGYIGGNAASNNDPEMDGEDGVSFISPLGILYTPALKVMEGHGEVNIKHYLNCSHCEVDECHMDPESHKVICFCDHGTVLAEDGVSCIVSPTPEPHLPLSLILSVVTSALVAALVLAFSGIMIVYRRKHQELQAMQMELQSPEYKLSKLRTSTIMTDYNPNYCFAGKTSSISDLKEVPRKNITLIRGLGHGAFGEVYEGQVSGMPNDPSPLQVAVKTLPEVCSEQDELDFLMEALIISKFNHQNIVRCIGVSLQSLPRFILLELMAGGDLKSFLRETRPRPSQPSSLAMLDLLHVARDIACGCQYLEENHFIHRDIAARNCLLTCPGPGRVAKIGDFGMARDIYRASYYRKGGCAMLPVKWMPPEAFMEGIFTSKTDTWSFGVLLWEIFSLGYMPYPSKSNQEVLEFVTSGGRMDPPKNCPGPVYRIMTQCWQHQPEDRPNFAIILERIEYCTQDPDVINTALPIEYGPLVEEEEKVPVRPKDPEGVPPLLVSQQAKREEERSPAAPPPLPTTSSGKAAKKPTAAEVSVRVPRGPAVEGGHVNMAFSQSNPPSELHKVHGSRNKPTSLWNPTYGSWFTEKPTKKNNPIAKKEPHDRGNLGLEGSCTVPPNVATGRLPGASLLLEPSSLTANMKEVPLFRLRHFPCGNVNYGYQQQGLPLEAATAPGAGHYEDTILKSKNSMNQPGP

B1: fully human anti-ALK IgG C1 (antibody, V domains shown)
VH: EVQLLESGGGLVQPGGSLRLSCAASGFTFSMYPMDWVRQAPGKGLEWVSRISSSGGTTEYADSVKGRFTISRDNSKNTLYLQMNSLRAEDTAVYYCTRRFCISGVCPFEYWGQGTLVTVSS
VL: QSALTQPPSASGTPGQRVTISCSGSSSNIGSNTVNWYQQLPGTAPKLLIYSNNQRPSGVPDRFSGSKSGTSASLAISGLQSEDEADYYCQSYDNSLTNFVFGSGTKVTVLG
notes: Full length fully human IgG; also called Cl
Turning to B1, in assay [1], the binding result is given as “binds”.

B2: fully human anti-ALK IgG E5 (antibody, V domains shown)
VH: EVQLLESGGGLVQPGGSLRLSCAASGFTFSLYPMMWVRQAPGKGLEWVSVISSSGGFTFYADSVKGRFTISRDNSKNTLYLQMNSLRAEDTAVYYCARSLAYIFDAFDIWGQGTMVTVSS
VL: DIQMTQSPGTLSLSPGERATLYCRASQSLYSSYLAWYQQRPGQAPRLLIYDTSSRATGIPDRFSGSGSGTDFTLTISRLEPEDFAVYYCQQYGTSLRTFGQGTKVEIK
notes: Full length fully human IgG
B2: the binding result in assay [1] was “binds”.

B3: fully human anti-ALK IgG A7 (antibody, V domains shown)
VH: EVQLLESGGGLVQPGGSLRLSCAASGFTFSNYIMSWVRQAPGKGLEWVSWISSSGGFTQYADSVKGRFTISRDNSKNTLYLQMNSLRAEDTAVYYCARVIAAAGAFDYWGQGTLVTVSS
VL: DIQMTQSPSSVAASVGDRVTITCRASQDISTWLAWYQQKPGKAPKLLLSGASRLERGVPSRFSGSGSGTDFTLTIRGLQSEDFATYYCQQARSFPPTFGQGTRVEMR
notes: Full length fully human IgG
As to B3, in assay [1], the binding result is “binds”.

B4: fully human anti-ALK IgG B6 (antibody, V domains shown)
VH: EVQLLESGGGLVQPGGSLRLSCAASGFTFSFYTMFWVRQAPGKGLEWVSSIRPSGGLTGYADSVKGRFTISRDNSKNTLYLQMNSLRAEDTAVYYCARGMQRGLDYWGQGTLVTVSS
VL: QSALSQPPSASGTPGQRVSISCSGSSSNIGSYYVYWYQHLPGTAPKLLIYRNNQRPSGVPDRFSGSKSGTSASLAISGLRSEDESDYYCAAWDDRLSAWVFGGGTKLTVLG
notes: Full length fully human IgG
Take B4: the binding result in assay [1] is “binds”.

B5: fully human anti-ALK IgG E1 (antibody, V domains shown)
VH: EVQLLESGGGLVQPGGSLRLSCAASGFTFSWYSMWWVRQAPGKGLEWVSSIRPSGGKTTYADSVKGRFTISRDNSKNTLYLQMNSLRAEDTAVYYCAKGLDPNGIAAAGGEGYWGQGTLVTVSS
VL: QSALTQPASVSGSPGQSITITCSGDALPKQFGYWYQQKPGQAPILVIYKDTERPSGIPERFSGSSSGTIVTLTISGVRAEDEADYYCQSADSSGNSVVFGGGTKLTVLG
notes: Full length fully human IgG; also called El
Turning to B5, the binding result in assay [1] is “binds”.

B6: fully human anti-ALK IgG A2 (antibody, V domains shown)
VH: EVQLLESGGGLVQPGGSLRLSCAASGFTFSGYTMYWVRQAPGKGLEWVSSISPSGGITFYADSVKGRFTISRDNSKNTLYLQMNSLRAEDTAVYYCARGRLFWSGYYTNRLGYAFDIWGQGTMVTVSS
VL: DIQMTQSPSSLSASVGDRVTITCRASQSIRSYLNWYQQKPGKAPKLLIYAASNLQSGVPSRFSGSGSGTDFTLSISSLQPEDFATYYCQQSYSTLWTFGQGTKVEIK
notes: Full length fully human IgG
For B6, the binding result in assay [1] was “binds”.

B7: fully human anti-ALK IgG D10 (antibody, V domains shown)
VH: EVQLLESGGGLVQPGGSLRLSCAASGFTFSKYGMHWVRQAPGKGLEWVSYIVPSGGYTIYADSVKGRFTISRDNSKNTLYLQMNSLRAEDTAMYYCAKLAGDWFDPWGQGTLVTVSS
VL: DIQMTQSPLSLPVTLGQPASISCRSSQSLVHSNGNTYLSWFHQRPGQSPRRLIHKISDRVSGVPDRFSGSGSGTDFTLKISRLEAEDVGIYYCMQGTHWPPTFGQGTKVEIK
notes: Full length fully human IgG; also called DlO; DlO antibody
Turning to B7, the binding result in assay [2] and in assay [1] was “binds” in each case.

B8: fully human anti-ALK IgG D5 (antibody, V domains shown)
VH: EVQLLESGGGLVQPGGSLRLSCAASGFTFSNYRMSWVRQAPGKGLEWVSWIYSSGGMTTYADSVKGRFTISRDNSKNTLYLQMNSLRAEDTAVYYCARERSKNYDTSVPVGFDIWGQGTMVTVSS
VL: DIQMTQSPATLSLSPGERATLSCRASQSISSFLAWYQHKPGQAPRLLIYDASNRATGIPARFSGSGSGTDFTLTISSLEPEDFAVYYCQQRTTWPPALTFGGGTKVEIK
notes: Full length fully human IgG
Take B8: the binding result in assay [1] is listed as “binds”.

B9: fully human anti-ALK IgG B2 (antibody, V domains shown)
VH: EVQLLESGGGLVQPGGSLRLSCAASGFTFSHYMMEWVRQAPGKGLEWVSGIVPSGGLTTYADSVKGRFTISRDNSKNTLYLQMNSLRAEDTAVYYCATITMGAFDIWGQGTMVTVSS
VL: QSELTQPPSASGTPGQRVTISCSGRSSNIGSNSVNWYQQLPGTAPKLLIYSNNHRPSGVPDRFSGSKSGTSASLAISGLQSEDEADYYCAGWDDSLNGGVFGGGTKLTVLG
notes: Full length fully human IgG
Regarding B9, in assay [1], the binding result is “binds”.

B10: fully human anti-ALK IgG B8 (antibody, V domains shown)
VH: EVQLLESGGGLVQPGGSLRLSCAASGFTFSQYVMAWVRQAPGKGLEWVSSIWSSGGMTWYADSVKGRFTISRDNSKNTLYLQMNSLRAEDTAVYYCAKHGVLRYFDWSMPFDFWGQGTLVTVSS
VL: DIQMTQSPPSLSASVGDRVTITCRTSQNISSYLNWYQQKPGKAPKLLIYAASSLQSGVPSRFSGSGSGTDFTLTIRSLQPEDFAAYYCQQSYTSLTFGGGTKVEIK
notes: Full length fully human IgG
In the case of B10, the binding result in assay [1] is given as “binds”.

(Values after patent WO2007059300A2 (dated 2007).)
